The record followed here is article PMC3188589, “Structural and Biochemical Studies of Human 4-hydroxy-2-oxoglutarate Aldolase: Implications for Hydroxyproline Metabolism in Primary Hyperoxaluria” (PLoS ONE, 2011).

Several values for one entry are separate records, joined by “and”; a condition that tells them apart may be missing. Identical values can stand only once.

The labels stand for the following.
T1: bovine HOGA (bHOGA) (Bos taurus, UniProt Q0P5I5)
T1 construct: gene HOGA1; native mature enzyme purified from kidney cortex mitochondria, begins at residue 26, 35,217 Da printed, no tag
T1 sequence (Q0P5I5 26-327): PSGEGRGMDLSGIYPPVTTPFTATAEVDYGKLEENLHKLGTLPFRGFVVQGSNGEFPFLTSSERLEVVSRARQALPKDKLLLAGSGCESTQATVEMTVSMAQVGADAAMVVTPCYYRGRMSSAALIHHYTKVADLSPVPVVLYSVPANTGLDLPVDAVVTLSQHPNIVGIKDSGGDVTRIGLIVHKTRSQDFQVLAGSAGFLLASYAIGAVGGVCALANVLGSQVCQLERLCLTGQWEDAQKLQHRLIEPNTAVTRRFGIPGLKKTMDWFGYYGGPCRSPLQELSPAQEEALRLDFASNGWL

T2: human HOGA (hHOGA) (Homo sapiens, UniProt Q86XE5)
T2 construct: gene HOGA1; His-tag (WT, Y140F) cleavable by PreScission leaving GPH, 33,097 Da tag-free; S77, N78 and S198 mutants as MBP fusion, MBP cleaved; tetramer
T2 sequence (Q86XE5 26-327): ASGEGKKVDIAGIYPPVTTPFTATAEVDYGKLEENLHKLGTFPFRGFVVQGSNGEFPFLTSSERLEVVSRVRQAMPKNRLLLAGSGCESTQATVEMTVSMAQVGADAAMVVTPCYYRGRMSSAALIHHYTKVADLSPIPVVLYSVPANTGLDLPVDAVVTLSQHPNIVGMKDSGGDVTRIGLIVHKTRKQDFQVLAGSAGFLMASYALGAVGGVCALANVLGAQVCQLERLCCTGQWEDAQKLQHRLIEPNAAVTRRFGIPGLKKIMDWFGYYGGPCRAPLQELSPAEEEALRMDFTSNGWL

B1: human 4-hydroxy-2-oxoglutarate aldolase (hHOGA), His-tag free (enzyme)
chain: GPHASGEGKKVDIAGIYPPVTTPFTATAEVDYGKLEENLHKLGTFPFRGFVVQGSNGEFPFLTSSERLEVVSRVRQAMPKNRLLLAGSGCESTQATVEMTVSMAQVGADAAMVVTPCYYRGRMSSAALIHHYTKVADLSPIPVVLYSVPANTGLDLPVDAVVTLSQHPNIVGMKDSGGDVTRIGLIVHKTRKQDFQVLAGSAGFLMASYALGAVGGVCALANVLGAQVCQLERLCCTGQWEDAQKLQHRLIEPNAAVTRRFGIPGLKKIMDWFGYYGGPCRAPLQELSPAEEEALRMDFTSNGWL
notes: three additional N-terminal residues left from the PreScission Protease recognition site after removal of the His-tag; the protein starts at residue 26; 302 residues in the mature form; Tetramer (dimer of dimers) in the crystal; dimer-tetramer equilibrium in solution; also called human HOGA; HOGA1; source: E. coli BL21*(DE3), purified (Ni-NTA, Q-Sepharose HP, Superdex 200); His-tag removed with …
B2: human HOGA (hHOGA) (Homo sapiens; Y140F) (protein)
chain: ASGEGKKVDIAGIYPPVTTPFTATAEVDYGKLEENLHKLGTFPFRGFVVQGSNGEFPFLTSSERLEVVSRVRQAMPKNRLLLAGSGCESTQATVEMTVSMAQVGADAAMVVTPCFYRGRMSSAALIHHYTKVADLSPIPVVLYSVPANTGLDLPVDAVVTLSQHPNIVGMKDSGGDVTRIGLIVHKTRKQDFQVLAGSAGFLMASYALGAVGGVCALANVLGAQVCQLERLCCTGQWEDAQKLQHRLIEPNAAVTRRFGIPGLKKIMDWFGYYGGPCRAPLQELSPAEEEALRMDFTSNGWL
notes: His-tag (WT, Y140F) cleavable by PreScission leaving GPH, 33,097 Da tag-free; S77, N78 and S198 mutants as MBP fusion, MBP cleaved; tetramer
B3: human HOGA (hHOGA) (Homo sapiens; S198A) (protein)
chain: ASGEGKKVDIAGIYPPVTTPFTATAEVDYGKLEENLHKLGTFPFRGFVVQGSNGEFPFLTSSERLEVVSRVRQAMPKNRLLLAGSGCESTQATVEMTVSMAQVGADAAMVVTPCYYRGRMSSAALIHHYTKVADLSPIPVVLYSVPANTGLDLPVDAVVTLSQHPNIVGMKDAGGDVTRIGLIVHKTRKQDFQVLAGSAGFLMASYALGAVGGVCALANVLGAQVCQLERLCCTGQWEDAQKLQHRLIEPNAAVTRRFGIPGLKKIMDWFGYYGGPCRAPLQELSPAEEEALRMDFTSNGWL
notes: as for B2
B4: human HOGA (hHOGA) (Homo sapiens; N78Q) (protein)
chain: ASGEGKKVDIAGIYPPVTTPFTATAEVDYGKLEENLHKLGTFPFRGFVVQGSQGEFPFLTSSERLEVVSRVRQAMPKNRLLLAGSGCESTQATVEMTVSMAQVGADAAMVVTPCYYRGRMSSAALIHHYTKVADLSPIPVVLYSVPANTGLDLPVDAVVTLSQHPNIVGMKDSGGDVTRIGLIVHKTRKQDFQVLAGSAGFLMASYALGAVGGVCALANVLGAQVCQLERLCCTGQWEDAQKLQHRLIEPNAAVTRRFGIPGLKKIMDWFGYYGGPCRAPLQELSPAEEEALRMDFTSNGWL
notes: as for B2
B5: human HOGA (hHOGA) (Homo sapiens; N78A) (protein)
chain: ASGEGKKVDIAGIYPPVTTPFTATAEVDYGKLEENLHKLGTFPFRGFVVQGSAGEFPFLTSSERLEVVSRVRQAMPKNRLLLAGSGCESTQATVEMTVSMAQVGADAAMVVTPCYYRGRMSSAALIHHYTKVADLSPIPVVLYSVPANTGLDLPVDAVVTLSQHPNIVGMKDSGGDVTRIGLIVHKTRKQDFQVLAGSAGFLMASYALGAVGGVCALANVLGAQVCQLERLCCTGQWEDAQKLQHRLIEPNAAVTRRFGIPGLKKIMDWFGYYGGPCRAPLQELSPAEEEALRMDFTSNGWL
notes: as for B2
B6: human HOGA (hHOGA) (Homo sapiens; S77A) (protein)
chain: ASGEGKKVDIAGIYPPVTTPFTATAEVDYGKLEENLHKLGTFPFRGFVVQGANGEFPFLTSSERLEVVSRVRQAMPKNRLLLAGSGCESTQATVEMTVSMAQVGADAAMVVTPCYYRGRMSSAALIHHYTKVADLSPIPVVLYSVPANTGLDLPVDAVVTLSQHPNIVGMKDSGGDVTRIGLIVHKTRKQDFQVLAGSAGFLMASYALGAVGGVCALANVLGAQVCQLERLCCTGQWEDAQKLQHRLIEPNAAVTRRFGIPGLKKIMDWFGYYGGPCRAPLQELSPAEEEALRMDFTSNGWL
notes: as for B2
B7: human HOGA (hHOGA) (Homo sapiens) (protein)
chain: ASGEGKKVDIAGIYPPVTTPFTATAEVDYGKLEENLHKLGTFPFRGFVVQGSNGEFPFLTSSERLEVVSRVRQAMPKNRLLLAGSGCESTQATVEMTVSMAQVGADAAMVVTPCYYRGRMSSAALIHHYTKVADLSPIPVVLYSVPANTGLDLPVDAVVTLSQHPNIVGMKDSGGDVTRIGLIVHKTRKQDFQVLAGSAGFLMASYALGAVGGVCALANVLGAQVCQLERLCCTGQWEDAQKLQHRLIEPNAAVTRRFGIPGLKKIMDWFGYYGGPCRAPLQELSPAEEEALRMDFTSNGWL
notes: as for B2
B8: human HOGA (hHOGA) (Homo sapiens; S77T) (protein)
chain: ASGEGKKVDIAGIYPPVTTPFTATAEVDYGKLEENLHKLGTFPFRGFVVQGTNGEFPFLTSSERLEVVSRVRQAMPKNRLLLAGSGCESTQATVEMTVSMAQVGADAAMVVTPCYYRGRMSSAALIHHYTKVADLSPIPVVLYSVPANTGLDLPVDAVVTLSQHPNIVGMKDSGGDVTRIGLIVHKTRKQDFQVLAGSAGFLMASYALGAVGGVCALANVLGAQVCQLERLCCTGQWEDAQKLQHRLIEPNAAVTRRFGIPGLKKIMDWFGYYGGPCRAPLQELSPAEEEALRMDFTSNGWL
notes: as for B2
B9: human HOGA (hHOGA) (Homo sapiens; S77V) (protein)
chain: ASGEGKKVDIAGIYPPVTTPFTATAEVDYGKLEENLHKLGTFPFRGFVVQGVNGEFPFLTSSERLEVVSRVRQAMPKNRLLLAGSGCESTQATVEMTVSMAQVGADAAMVVTPCYYRGRMSSAALIHHYTKVADLSPIPVVLYSVPANTGLDLPVDAVVTLSQHPNIVGMKDSGGDVTRIGLIVHKTRKQDFQVLAGSAGFLMASYALGAVGGVCALANVLGAQVCQLERLCCTGQWEDAQKLQHRLIEPNAAVTRRFGIPGLKKIMDWFGYYGGPCRAPLQELSPAEEEALRMDFTSNGWL
notes: as for B2
B10: human HOGA (hHOGA) (Homo sapiens; N78T) (protein)
chain: ASGEGKKVDIAGIYPPVTTPFTATAEVDYGKLEENLHKLGTFPFRGFVVQGSTGEFPFLTSSERLEVVSRVRQAMPKNRLLLAGSGCESTQATVEMTVSMAQVGADAAMVVTPCYYRGRMSSAALIHHYTKVADLSPIPVVLYSVPANTGLDLPVDAVVTLSQHPNIVGMKDSGGDVTRIGLIVHKTRKQDFQVLAGSAGFLMASYALGAVGGVCALANVLGAQVCQLERLCCTGQWEDAQKLQHRLIEPNAAVTRRFGIPGLKKIMDWFGYYGGPCRAPLQELSPAEEEALRMDFTSNGWL
notes: as for B2
B11: human HOGA (hHOGA) (Homo sapiens; S198T) (protein)
chain: ASGEGKKVDIAGIYPPVTTPFTATAEVDYGKLEENLHKLGTFPFRGFVVQGSNGEFPFLTSSERLEVVSRVRQAMPKNRLLLAGSGCESTQATVEMTVSMAQVGADAAMVVTPCYYRGRMSSAALIHHYTKVADLSPIPVVLYSVPANTGLDLPVDAVVTLSQHPNIVGMKDTGGDVTRIGLIVHKTRKQDFQVLAGSAGFLMASYALGAVGGVCALANVLGAQVCQLERLCCTGQWEDAQKLQHRLIEPNAAVTRRFGIPGLKKIMDWFGYYGGPCRAPLQELSPAEEEALRMDFTSNGWL
notes: as for B2

The first data set deals with the molecule itself. As to the kind of experiment: AUC; sedimentation equilibrium; His-tag free hHOGA at 0.43, 0.82, 1.25 mg/ml and a replicate at 0.45, 0.78, 1.14 mg/ml, two rotor speeds; 20 mM HEPES pH 7.5, 100 mM NaCl; fit to a dimer-tetramer model (HETEROANALYSIS, SEDPHAT); tetramer to dimers.
Settings: not given
One may read the Kd as the equilibrium constant for the complex coming apart. The low end stands for tighter binding, the high end for weaker binding. In the case of B1, the Kd was ~60 µM and 58 to 63 µM.

For a further data set, the target named is T1, bovine HOGA (bHOGA). As to the kind of experiment: phenylhydrazine assay of glyoxylate formation. It is filed as biochemical. The following applies: racemic HOG; native enzyme from kidney mitochondria.
On to `O=C(O)C(=O)CC(O)C(=O)O` (racemic) [HOG], for which the “phenylhydrazine assay of glyoxylate formation” value was “production of glyoxylate from HOG synthesized in-house”.

Another data set concerns the target T2, human HOGA (hHOGA). As to the kind of experiment: X-ray crystal structure, […] Å. The data set is classed as binding. The following applies: covalent Schiff base with Lys196; 10 mM sodium pyruvate in crystallization, pH 7.5, 20°C.
Consider `CC(=O)C(=O)O` [pyruvate], for which the “X-ray crystal structure, 1.97 Å” value was “clear continuous electron density for the imine Schiff base adduct between the ε-amino group of”.

The next data set deals with the molecule itself. In words: crystal structure; apoenzyme (2.5 A) and pyruvate-Schiff base complex (1.97 A), space group P6(4)22, one molecule in the asymmetric unit; the tetramer is generated by crystallographic symmetry.
Settings: not given
For orientation: stoichiometry N means a count of units in the complex or per binding partner. For B1, the “stoichiometry N” value turned out to be 4.

Substrate in another data set: O=C(O)C(=O)CC(O)C(=O)O
As to the kind of experiment: purified protein. The data set is classed as biochemical, Homo sapiens. Particulars: racemic HOG, 100 mM TRIS pH 8.5, 37°C, aldol cleavage.
By Km is commonly meant the substrate concentration at which the rate is half of its maximum. As a reminder, the kcat is the maximal rate divided by the concentration of active sites. Broadly, the kcat/Km is the second-order rate constant that governs catalysis at low substrate concentration. For the molecule B2, the Km was 8 ± 1 µM, the kcat came to 5.2 ± 0.1 s⁻¹ and the kcat/Km is 650000 ± 81000 M⁻¹ s⁻¹.

With B3, the Km was determined as 44 ± 2 µM, the kcat was 2.4 ± 0.1 s⁻¹ and the kcat/Km was determined as 55000 ± 3000 M⁻¹ s⁻¹.

For the molecule B4, the Km stood at 281 ± 14 µM, the kcat stood at 6.2 ± 0.1 s⁻¹ and the kcat/Km worked out at 22000 ± 1000 M⁻¹ s⁻¹.

As to B5, the Km came to 66 ± 4 µM, the kcat came to 7.6 ± 0.1 s⁻¹ and the kcat/Km is 115000 ± 7000 M⁻¹ s⁻¹.

With B6, the Km turned out to be 84 ± 5 µM, the kcat came to 2.5 ± 0.1 s⁻¹ and the kcat/Km was found to be 30000 ± 2000 M⁻¹ s⁻¹.

Regarding B7, the Km was found to be 11 ± 1 µM, the turnover number (kcat) was 6.1 ± 0.1 s⁻¹ and the kcat/Km is 555000 ± 50000 M⁻¹ s⁻¹.

With B8, the Km came to 58 ± 8 µM, the catalytic constant (kcat) came to 0.8 ± 0.1 s⁻¹ and the kcat/Km was 14000 ± 2000 M⁻¹ s⁻¹.

For B9, the Km was determined as 82 ± 7 µM, the kcat came out at 1.2 ± 0.1 s⁻¹ and the kcat/Km is 15000 ± 1000 M⁻¹ s⁻¹.

Consider B10, for which the Km turned out to be 16 ± 1 µM, the kcat came out at 4 ± 0.1 s⁻¹ and the catalytic efficiency (kcat/Km) amounted to 250000 ± 16000 M⁻¹ s⁻¹.

As for B11, the Km was found to be 77 ± 5 µM, the catalytic constant (kcat) turned out to be 7.8 ± 0.1 s⁻¹ and the kcat/Km was 101000 ± 7000 M⁻¹ s⁻¹.
